One series deals with T1, BANP full-length WT (human, UniProt Q8N9N5 1-519).
T1 sequence: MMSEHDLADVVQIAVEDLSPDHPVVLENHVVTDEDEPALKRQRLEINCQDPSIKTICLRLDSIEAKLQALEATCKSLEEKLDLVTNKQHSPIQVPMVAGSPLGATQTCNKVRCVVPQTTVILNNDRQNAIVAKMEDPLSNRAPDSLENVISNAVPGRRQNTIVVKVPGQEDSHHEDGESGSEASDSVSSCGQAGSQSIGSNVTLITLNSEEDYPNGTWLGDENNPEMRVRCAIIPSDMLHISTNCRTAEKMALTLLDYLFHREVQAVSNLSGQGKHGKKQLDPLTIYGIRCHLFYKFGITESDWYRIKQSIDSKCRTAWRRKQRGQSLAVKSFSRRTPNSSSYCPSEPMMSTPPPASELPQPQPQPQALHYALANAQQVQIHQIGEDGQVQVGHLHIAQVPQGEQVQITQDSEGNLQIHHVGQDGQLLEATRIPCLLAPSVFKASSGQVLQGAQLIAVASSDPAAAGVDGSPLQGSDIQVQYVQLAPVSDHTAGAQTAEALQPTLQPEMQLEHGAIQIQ
Nature of the series: ITC; ITC: 20 mM Tris pH 7.5, 200 mM NaCl, 2 mM beta-mercaptoethanol, 20 C; EMSA: 20 mM Tris pH 7.0, 200 mM NaCl, 2 mM DTT, 4 C, 1.2% agarose in TAE. The note with it: protein: recombinant; tags: His-SUMO or His-MBP, cleaved; chain copies: 4; blunt, self-complementary. (Isothermal titration calorimetry measures the heat released or taken up as one component is titrated into another.)

The target in the next series is T2, BANP CC-BEN (ΔDBD) (human, UniProt Q8N9N5 1-360).
T2 sequence: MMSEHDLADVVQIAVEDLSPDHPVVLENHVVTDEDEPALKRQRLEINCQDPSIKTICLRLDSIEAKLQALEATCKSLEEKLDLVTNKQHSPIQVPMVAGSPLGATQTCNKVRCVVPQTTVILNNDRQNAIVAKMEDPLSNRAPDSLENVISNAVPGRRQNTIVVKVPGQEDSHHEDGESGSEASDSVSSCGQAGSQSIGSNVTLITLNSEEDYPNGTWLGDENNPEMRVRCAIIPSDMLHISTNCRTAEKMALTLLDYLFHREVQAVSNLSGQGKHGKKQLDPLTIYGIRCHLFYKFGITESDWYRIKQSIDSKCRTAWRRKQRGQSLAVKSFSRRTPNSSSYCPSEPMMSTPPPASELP
The description is as above. The note with it: protein: recombinant; tags: His-SUMO or His-MBP, cleaved; blunt, self-complementary.

The target of a further series is T3, BANP ΔCC (human, UniProt Q8N9N5 90-519).
T3 sequence: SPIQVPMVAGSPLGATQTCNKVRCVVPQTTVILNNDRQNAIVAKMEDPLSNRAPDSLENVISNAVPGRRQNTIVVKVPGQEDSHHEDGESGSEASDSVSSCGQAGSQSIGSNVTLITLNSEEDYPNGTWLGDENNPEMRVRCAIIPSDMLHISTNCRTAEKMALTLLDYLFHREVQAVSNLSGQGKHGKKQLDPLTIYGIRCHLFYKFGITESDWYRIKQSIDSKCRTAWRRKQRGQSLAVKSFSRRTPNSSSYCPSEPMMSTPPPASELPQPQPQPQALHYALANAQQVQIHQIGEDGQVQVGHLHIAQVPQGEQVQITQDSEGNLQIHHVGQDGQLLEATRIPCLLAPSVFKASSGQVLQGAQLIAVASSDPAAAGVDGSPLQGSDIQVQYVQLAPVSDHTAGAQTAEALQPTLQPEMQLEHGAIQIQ
The description is as above. As to conditions: protein: recombinant; tags: His-SUMO or His-MBP, cleaved; blunt, self-complementary.

The next series deals with T4, GST-BANP BEN (human, UniProt Q8N9N5 205-325).
T4 sequence: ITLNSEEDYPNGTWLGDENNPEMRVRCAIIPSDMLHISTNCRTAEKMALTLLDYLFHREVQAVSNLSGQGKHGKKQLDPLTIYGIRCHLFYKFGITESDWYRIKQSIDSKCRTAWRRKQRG
The description is as above. The note with it: protein: recombinant; tags: N-terminal GST fusion; chain copies: 2; blunt, self-complementary.

Another series has as its target T5, BANP BEN-DBD (human, UniProt Q8N9N5 205-519).
T5 sequence: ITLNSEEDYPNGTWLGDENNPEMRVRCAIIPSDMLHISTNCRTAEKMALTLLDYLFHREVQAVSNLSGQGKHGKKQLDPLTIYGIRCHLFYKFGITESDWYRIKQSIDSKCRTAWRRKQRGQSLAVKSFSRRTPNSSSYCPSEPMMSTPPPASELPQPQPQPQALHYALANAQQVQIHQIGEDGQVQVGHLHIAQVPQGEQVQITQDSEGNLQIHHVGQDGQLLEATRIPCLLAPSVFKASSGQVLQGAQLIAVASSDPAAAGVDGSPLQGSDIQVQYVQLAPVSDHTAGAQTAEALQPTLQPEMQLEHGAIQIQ
The series is described as above. The note with it: protein: recombinant; tags: His-SUMO or His-MBP, cleaved; blunt, self-complementary.

In the next series the target is T6, BANP BEN WT (human, UniProt Q8N9N5 205-325).
T6 sequence: T4 sequence
The series is described as above. The note with it: protein: recombinant; tags: His-SUMO or His-MBP, cleaved; chain copies: 2; blunt, self-complementary.

The next series has as its target T7, NACC1 BEN R421A (human, UniProt Q96RE7 341-477, R421A).
T7 sequence: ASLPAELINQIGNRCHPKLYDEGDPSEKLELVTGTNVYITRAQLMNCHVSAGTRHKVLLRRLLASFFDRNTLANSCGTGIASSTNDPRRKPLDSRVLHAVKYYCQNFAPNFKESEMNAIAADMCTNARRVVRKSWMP
The series is described as above. As to conditions: protein: recombinant; tags: His-SUMO or His-MBP, cleaved; blunt, self-complementary.

For a further series, the target named is T8, NACC1 BEN R429A (human, UniProt Q96RE7 341-477, R429A).
T8 sequence: T7 sequence with A81R, R89A
The series is described as above. As to conditions: protein: recombinant; tags: His-SUMO or His-MBP, cleaved; blunt, self-complementary.

A further series addresses T9, NACC1 BEN R472A (human, UniProt Q96RE7 341-477, R472A).
T9 sequence: T7 sequence with A81R, R132A
Described as above. As to conditions: protein: recombinant; tags: His-SUMO or His-MBP, cleaved; blunt, self-complementary.

The target of another series is T10, NACC1 BEN D462A (human, UniProt Q96RE7 341-477, D462A).
T10 sequence: T7 sequence with A81R, D122A
Described as above. As to conditions: protein: recombinant; tags: His-SUMO or His-MBP, cleaved; blunt, self-complementary.

The next series has as its target T11, NACC1 BEN N466A (human, UniProt Q96RE7 341-477, N466A).
T11 sequence: T7 sequence with A81R, N126A
The description is as above. As to conditions: protein: recombinant; tags: His-SUMO or His-MBP, cleaved; blunt, self-complementary.

Another series concerns the target T12, NACC1 BEN WT (human, UniProt Q96RE7 341-477).
T12 sequence: T7 sequence with A81R
Described as above. As to conditions: protein: recombinant; tags: His-SUMO or His-MBP, cleaved; blunt, self-complementary.

The target in a further series is T13, NACC1 BEN R469A (human, UniProt Q96RE7 341-477, R469A).
T13 sequence: T7 sequence with A81R, R129A
Kind of series: ITC; Kd N.A.; almost completely abolished; ITC: 20 mM Tris pH 7.5, 200 mM NaCl, 2 mM beta-mercaptoethanol, 20 C; EMSA: 20 mM Tris pH 7.0, 200 mM NaCl, 2 mM DTT, 4 C, 1.2% agarose in TAE. As to conditions: protein: recombinant; tags: His-SUMO or His-MBP, cleaved; blunt, self-complementary.

Changes are numbered by the printed parent chain.

B1: 12-mCGCG (dsDNA)
DNA 1: ATCTCGCGAGAT
DNA 2: ATCTCGCGAGAT
modifications: 5-methyl-C at position 5 of each strand (palindrome; called hemi-methylated, one CpG methylated)
Usually Kd stands for the concentration at which binding is half-saturated. Regarding B1, the Kd with BANP full-length WT came to 4.9 ± 1.4 µM; with BANP CC-BEN (ΔDBD), 4.3 ± 0.8 µM; with BANP ΔCC it was 5.6 ± 0.9 µM; with GST-BANP BEN it was 3.5 ± 0.6 µM; with BANP BEN-DBD, 8.3 ± 0.6 µM; in the series with BANP BEN WT, 5.6 ± 0.7 µM.

B2: 12-CATG (dsDNA)
DNA 1: ATTACATGTAAT
DNA 2: ATTACATGTAAT
Regarding B2, the Kd is 4.6 ± 0.6 µM with NACC1 BEN R421A; 34.7 ± 4.5 µM with NACC1 BEN R429A; 8.6 ± 1.4 µM with NACC1 BEN R472A; 4.6 ± 0.4 µM with NACC1 BEN D462A; 2.9 ± 0.4 µM with NACC1 BEN N466A; 1.3 ± 0.2 µM with NACC1 BEN WT. Further, the binding result with NACC1 BEN R469A is given as “no binding”.

These data come from article PMC11472053, “Structural basis of DNA recognition by BEN domain proteins reveals a role for oligomerization in unmethylated DNA selection by BANP” (Nucleic Acids Research, 2024).
